{"source": "paper PMC4427171", "key": {"[1]": {"target": "PfOPRTase 1–218(Δ37–58)-H6 (Plasmodium falciparum) (UniProt Q8I3Y0)", "experiment": "crystal structure; hanging drop, 100 mM ammonium sulfate, 30% PEG 3350, 277 K; protein at 30 mg/ml; space group P212121, eight chains (four catalytic dimers) in the asymmetric unit"}, "[2]": {"target": "PfOPRTase 1–218(Δ37–58)-H6 (Plasmodium falciparum) (UniProt Q8I3Y0)", "experiment": "crystal structure; hanging drop, 100 mM ammonium sulfate, 30% PEG 3350, 277 K; protein at 30 mg/ml; space group P212121, eight chains (four catalytic dimers) in the asymmetric unit", "remark": "listed apart in the source"}}, "note": "Like-named read-outs stand apart in the source and are kept apart here."}
{"substance": "PfOPRTase 1–218(Δ37–58)-H6 (from UniProt Q8I3Y0 1-218) (enzyme)", "values": [{"measurement": "stoichiometry N", "setting": "[1]", "result": 4}, {"measurement": "stoichiometry N", "setting": "[2]", "result": 2}]}
